Measurements taken from IntAct's records for PubMed 26483485.

B1: Cell adhesion molecule CEACAM8 (Homo sapiens), P31997 (parent)
chain: MGPISAPSCRWRIPWQGLLLTASLFTFWNPPTTAQLTIEAVPSNAAEGKEVLLLVHNLPQDPRGYNWYKGETVDANRRIIGYVISNQQITPGPAYSNRETIYPNASLLMRNVTRNDTGSYTLQVIKLNLMSEEVTGQFSVHPETPKPSISSNNSNPVEDKDAVAFTCEPETQNTTYLWWVNGQSLPVSPRLQLSNGNRTLTLLSVTRNDVGPYECEIQNPASANFSDPVTLNVLYGPDAPTISPSDTYYHAGVNLNLSCHAASNPPSQYSWSVNGTFQQYTQKLFIPNITTKNSGSYACHTTNSATGRNRTTVRMITVSDALVQGSSPGLSARATVSIMIGVLARVALI
B2: Cell adhesion molecule CEACAM6 (Homo sapiens), P40199 (parent)
chain: MGPPSAPPCRLHVPWKEVLLTASLLTFWNPPTTAKLTIESTPFNVAEGKEVLLLAHNLPQNRIGYSWYKGERVDGNSLIVGYVIGTQQATPGPAYSGRETIYPNASLLIQNVTQNDTGFYTLQVIKSDLVNEEATGQFHVYPELPKPSISSNNSNPVEDKDAVAFTCEPEVQNTTYLWWVNGQSLPVSPRLQLSNGNMTLTLLSVKRNDAGSYECEIQNPASANRSDPVTLNVLYGPDVPTISPSKANYRPGENLNLSCHAASNPPAQYSWFINGTFQQSTQELFIPNITVNNSGSYMCQAHNSATGLNRTTVTMITVSGSAPVLSAVATVGITIGVLARVALI

Variants of: B1
Details: with ceam6_human CEACAM6, P40199

Variant | effect of a mutation on the interaction
Q123A | with no effect
L129A | disrupting interaction strength
R77A | disrupting interaction strength

Variants of: B2
Details: with ceam8_human CEACAM8, P31997

Variant | effect of a mutation on the interaction
MGPPSAPPCRLHVPWKEVLLTASLLTFWNPPTTAKLTIESTPFNVAEGKEVLLLAHNLPQNRAGYSWYKGERVDGNSLIVGYVIGTQQATPGPAYSGRETIYPNASLLIQNVTQNDTGFYTLQVIKSDLVNEEATGQFHVYPELPKPSISSNNSNPVEDKDAVAFTCEPEVQNTTYLWWVNGQSLPVSPRLQLSNGNMTLTLLSVKRNDAGSYECEIQNPASANRSDPVTLNVLYGPDVPTISPSKANYRPGENLNLSCHAASNPPAQYSWFINGTFQQSTQELFIPNITVNNSGSYMCQAHNSATGLNRTTVTMITVSGSAPVLSAVATVGITIGVLARVALI [I63A] | disrupting interaction strength
MGPPSAPPCRLHVPWKEVLLTASLLTFWNPPTTAKLTIESTPFNVAEGKEVLLLAHNLPQNRIGYSWYKGERVDGNSAIVGYVIGTQQATPGPAYSGRETIYPNASLLIQNVTQNDTGFYTLQVIKSDLVNEEATGQFHVYPELPKPSISSNNSNPVEDKDAVAFTCEPEVQNTTYLWWVNGQSLPVSPRLQLSNGNMTLTLLSVKRNDAGSYECEIQNPASANRSDPVTLNVLYGPDVPTISPSKANYRPGENLNLSCHAASNPPAQYSWFINGTFQQSTQELFIPNITVNNSGSYMCQAHNSATGLNRTTVTMITVSGSAPVLSAVATVGITIGVLARVALI [L78A] | with no effect
MGPPSAPPCRLHVPWKEVLLTASLLTFWNPPTTAKLTIESTPFNVAEGKEVLLLAHNLPQNRIGYSWYKGERVDGNSLIVGYVIGTQQATPGPAYSGRETIYPNASLLIQNVTQNDTGFYTLAVIKSDLVNEEATGQFHVYPELPKPSISSNNSNPVEDKDAVAFTCEPEVQNTTYLWWVNGQSLPVSPRLQLSNGNMTLTLLSVKRNDAGSYECEIQNPASANRSDPVTLNVLYGPDVPTISPSKANYRPGENLNLSCHAASNPPAQYSWFINGTFQQSTQELFIPNITVNNSGSYMCQAHNSATGLNRTTVTMITVSGSAPVLSAVATVGITIGVLARVALI [Q123A] | with no effect
MGPPSAPPCRLHVPWKEVLLTASLLTFWNPPTTAKLTIESTPFNVAEGKEVLLLAHNLPQNRIGYSWYKGERVDGNSLIVGYVIGTQQATPGPAYSGRETIYPNASLLIQNVTQNDTGFYTLQVIKSDAVNEEATGQFHVYPELPKPSISSNNSNPVEDKDAVAFTCEPEVQNTTYLWWVNGQSLPVSPRLQLSNGNMTLTLLSVKRNDAGSYECEIQNPASANRSDPVTLNVLYGPDVPTISPSKANYRPGENLNLSCHAASNPPAQYSWFINGTFQQSTQELFIPNITVNNSGSYMCQAHNSATGLNRTTVTMITVSGSAPVLSAVATVGITIGVLARVALI [L129A] | disrupting interaction strength
